Laboratory results taken from US7846435 (TEIJIN, dated 2010).

How the values were obtained:
[1] = target: T1, E. coli Verotoxin II (VT2) (E. coli, UniProt P09385 23-319; P09386 20-89)
T1 sequence 1: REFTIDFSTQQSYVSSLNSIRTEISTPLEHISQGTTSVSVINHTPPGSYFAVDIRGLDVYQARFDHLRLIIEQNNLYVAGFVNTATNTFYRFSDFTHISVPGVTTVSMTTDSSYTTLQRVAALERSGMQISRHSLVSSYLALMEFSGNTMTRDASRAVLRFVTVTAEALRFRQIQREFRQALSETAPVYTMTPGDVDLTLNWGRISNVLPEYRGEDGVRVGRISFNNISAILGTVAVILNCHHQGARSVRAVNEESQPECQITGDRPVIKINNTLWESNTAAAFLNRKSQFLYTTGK
T1 sequence 2: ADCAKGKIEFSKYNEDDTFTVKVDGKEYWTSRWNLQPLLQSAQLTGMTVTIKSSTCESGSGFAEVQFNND

[2] = target: T1, E. coli Verotoxin II (VT2); experiment: BIAcore (SPR)
[3] = target: VT2, VT2vx1 of E. coli 0157:H7 TK40 (E. coli); experiment: cell-based or functional assay

B1: humanized VTm1.1 antibody (HuVTm1.1) (antibody, V domains shown)
VH: EVQLVESGGGLVQPGGSLRLSCAASGFTFSSYGMSWVRQAPGKGLEWVATISTGGSYTYYPDSVKGRFTISRDNSKNTLYLQMNSLRAEDTAVYYCARRGDAWGNLDYWGQGTLVTVSS
VL: EIVLTQSPATLSVSPGERATLSCRASQTISNNLHWYQQKPGQAPRLLIKSASQSISGIPARFSGSGSGTDFTLTISSLESEDFAVYYCQQSYSWPLTFGQGTKVEIK
With B1 as the binder, how does the “factor of difference in competition compared to the mouse antibody” value [1] read?
The value was no more than 2 fold.

And the Kd [2]?
Its Kd is 3.6 nM.

What about the koff [2] of the same binder?
The koff was 0.00034 s⁻¹.

And the kon [2]?
The kon was 95000 M⁻¹ s⁻¹.

What about the ED50 (µg/ml), in vitro neutralizing assay [3] of the same binder?
Its ED50 (µg/ml), in vitro neutralizing assay is 0.35 µg/mL.
